Series [1] has as its target T1, Phe3H (phenylalanine 3-hydroxylase) (Streptomyces coeruleorubidus, UniProt F5BFC8).
T1 construct: gene pacX; purified Phe3H
Put plainly: steady-state inhibition kinetics of hydroxylation. The format is biochemical. From the text: steady-state inhibition kinetics of hydroxylation on […]

Substrate in series [2]: CC1Nc2nc(N)[nH]c(=O)c2NC1C
In words: purified protein. The format is biochemical, Streptomyces coeruleorubidus. To be noted: pterin varied, fixed L-Phe, pH 8, 28 °C, varied: cofactor.

Substrate in series [3]: NC(Cc1ccc(F)cc1)C(=O)O
In words: purified protein. Type of series: biochemical, Streptomyces coeruleorubidus. To be noted: fixed 6MPH4 cofactor, racemic substrate, pH 8, 28 °C.

Substrate in series [4]: NC(Cc1ccccc1F)C(=O)O
Put plainly: purified protein. The format is biochemical, Streptomyces coeruleorubidus. To be noted: fixed 6MPH4 cofactor, racemic substrate, pH 8, 28 °C.

Substrate in series [5]: N[C@@H](Cc1ccccc1)C(=O)O
In words: purified protein. The format is biochemical, Streptomyces coeruleorubidus.

Where [6] appears, read: fixed 6MPH4 cofactor, labelled compound, pH 8, 28 °C.
Setting [7] is: fixed 6MPH4 cofactor, pH 8, 28 °C.
The mark [8] stands for this setting: pterin cofactor (6MPH4 for wild type), labelled compound.
Setting [9] is: pterin cofactor (6MPH4 for wild type), optimised assay conditions.

As a reminder, the Ki is a dissociation constant, usually derived from enzyme kinetics or from competition with a known ligand. Read a high Ki as lower affinity. In turn, `NC(Cc1cccc(F)c1)C(=O)O` (racemic) [3F‐Phe] showed a Ki in series [1] of 800 µM.

B1: Phe3H (phenylalanine 3-hydroxylase) (Streptomyces coeruleorubidus) (protein)
chain: MQGPHAQMTDAAYEIRRSEIAALSTDLAPEDPIPVVEYTEWEHEVWRTVCVDLTARHRTDAAAEYLESAEQLAVPLDHVPQLRDVSGRLGSISGFTFQSAPALVPLREFCGGLANSVFHSTQYLRHPRSPFYTEDPDLLHDLVGHGNVLASDRFARLYRLAGNAAARVHSTEALQFIGKVFWFTLECGVVRERGERKAYGATLVSSYGELDHFRSADFRPLDIKSLADVEYDISTYQPILFEADSMDEVEDTVGSFWDTCDDDSIAALLGGTSRSVTPH
notes: purified Phe3H
A word on the Km: it is the concentration of substrate that gives half-maximal velocity. Broadly, the kcat is the maximal rate divided by the concentration of active sites. In general, kcat/Km refers to the second-order rate constant that governs catalysis at low substrate concentration. B1: the Km in the series “purified protein [2]” was 98 ± 10 µM; in “purified protein [3]” it was 230 ± 60 µM; in the series “purified protein [4]”, 1900 ± 100 µM; in the series “purified protein [5]” (setting [6]), 540 ± 70 µM; in the series “purified protein [5]” (setting [7]) it was 400 ± 60 µM. For the same molecule, the kcat in the series “purified protein [2]” came to 1.3 ± 0.05 s⁻¹; in “purified protein [3]”, 0.233 ± 0.00833 s⁻¹; in “purified protein [4]”, 0.167 ± 0.00333 s⁻¹; in the series “purified protein [5]” (setting [6]) it was 0.567 ± 0.0167 s⁻¹; in the series “purified protein [5]” (setting [7]), 0.633 ± 0.0333 s⁻¹. Also, the kcat/Km turned out to be 13300 ± 650 M⁻¹ s⁻¹ in the series “purified protein [2]”; 1050 ± 107 M⁻¹ s⁻¹ in the series “purified protein [3]”; 88.3 ± 2 M⁻¹ s⁻¹ in “purified protein [4]”; 1050 ± 48.3 M⁻¹ s⁻¹ in “purified protein [5]” (setting [6]); 1580 ± 118 M⁻¹ s⁻¹ in the series “purified protein [5]” (setting [7]).

B2: Phe3H (phenylalanine 3-hydroxylase) (Streptomyces coeruleorubidus; C187A) (protein)
chain: MQGPHAQMTDAAYEIRRSEIAALSTDLAPEDPIPVVEYTEWEHEVWRTVCVDLTARHRTDAAAEYLESAEQLAVPLDHVPQLRDVSGRLGSISGFTFQSAPALVPLREFCGGLANSVFHSTQYLRHPRSPFYTEDPDLLHDLVGHGNVLASDRFARLYRLAGNAAARVHSTEALQFIGKVFWFTLEAGVVRERGERKAYGATLVSSYGELDHFRSADFRPLDIKSLADVEYDISTYQPILFEADSMDEVEDTVGSFWDTCDDDSIAALLGGTSRSVTPH
notes: purified Phe3H
Turning to B2, in the series “purified protein [5]” (setting [8]), the Km came out at 130 ± 30 µM and the kcat amounted to 0.217 ± 0.00667 s⁻¹. Also, in the series “purified protein [5]” (setting [9]), the Km is 100 ± 10 µM and the kcat was 0.283 ± 0.005 s⁻¹.

B3: Phe3H (phenylalanine 3-hydroxylase) (Streptomyces coeruleorubidus; T202S) (protein)
chain: MQGPHAQMTDAAYEIRRSEIAALSTDLAPEDPIPVVEYTEWEHEVWRTVCVDLTARHRTDAAAEYLESAEQLAVPLDHVPQLRDVSGRLGSISGFTFQSAPALVPLREFCGGLANSVFHSTQYLRHPRSPFYTEDPDLLHDLVGHGNVLASDRFARLYRLAGNAAARVHSTEALQFIGKVFWFTLECGVVRERGERKAYGASLVSSYGELDHFRSADFRPLDIKSLADVEYDISTYQPILFEADSMDEVEDTVGSFWDTCDDDSIAALLGGTSRSVTPH
notes: purified Phe3H
For B3, the Km came out at 400 ± 300 µM in “purified protein [5]” (setting [8]) and 500 ± 200 µM in the series “purified protein [5]” (setting [9]). Also, the kcat in the series “purified protein [5]” (setting [8]) amounted to 0.217 ± 0.0667 s⁻¹; in “purified protein [5]” (setting [9]) it was 0.433 ± 0.0833 s⁻¹.

The values are drawn from publication PMC7027792, “Phenylalanine meta‐Hydroxylase: A Single Residue Mediates Mechanistic Control of Aromatic Amino Acid Hydroxylation” (Chembiochem, 2019).
